Key:
[1] = target: 43S preinitiation complex reconstituted from purified components (UniProt P62841); assay: co-sedimentation
40S ribosomal subunit = 40S ribosomal subunit (UniProt P62841); assay: co-sedimentation

fold reduction of bound SRP9/14 against the scAluY^A RNP sample [1]: 3 fold
percent of SRP9/14 comigrating with the complex [1]: 15%
share of h9/14 comigrating with the subunit (fraction of h9/14) (40S ribosomal subunit): 0.33
stoichiometry N (binding sites on 40S) (40S ribosomal subunit): > 1
Substance: human SRP9/14 protein dimer (from UniProt P49458 1-86; P37108 1-136) (complex)

— PMC4357698
